In the assay the target is valosin-containing protein (VCP)/p97 (UniProt P55072 1-806, labeled with Terbium (CoraFluor), DOL 0.33, in the TR-FRET assays). Put plainly: FRET or BRET. In general terms: In BRET a luciferase serves as donor, and the signal depends on an acceptor being close.

Usually IC50 stands for the concentration needed to halve the response being measured.

Sequence of valosin-containing protein (VCP)/p97 (P55072 whole entry): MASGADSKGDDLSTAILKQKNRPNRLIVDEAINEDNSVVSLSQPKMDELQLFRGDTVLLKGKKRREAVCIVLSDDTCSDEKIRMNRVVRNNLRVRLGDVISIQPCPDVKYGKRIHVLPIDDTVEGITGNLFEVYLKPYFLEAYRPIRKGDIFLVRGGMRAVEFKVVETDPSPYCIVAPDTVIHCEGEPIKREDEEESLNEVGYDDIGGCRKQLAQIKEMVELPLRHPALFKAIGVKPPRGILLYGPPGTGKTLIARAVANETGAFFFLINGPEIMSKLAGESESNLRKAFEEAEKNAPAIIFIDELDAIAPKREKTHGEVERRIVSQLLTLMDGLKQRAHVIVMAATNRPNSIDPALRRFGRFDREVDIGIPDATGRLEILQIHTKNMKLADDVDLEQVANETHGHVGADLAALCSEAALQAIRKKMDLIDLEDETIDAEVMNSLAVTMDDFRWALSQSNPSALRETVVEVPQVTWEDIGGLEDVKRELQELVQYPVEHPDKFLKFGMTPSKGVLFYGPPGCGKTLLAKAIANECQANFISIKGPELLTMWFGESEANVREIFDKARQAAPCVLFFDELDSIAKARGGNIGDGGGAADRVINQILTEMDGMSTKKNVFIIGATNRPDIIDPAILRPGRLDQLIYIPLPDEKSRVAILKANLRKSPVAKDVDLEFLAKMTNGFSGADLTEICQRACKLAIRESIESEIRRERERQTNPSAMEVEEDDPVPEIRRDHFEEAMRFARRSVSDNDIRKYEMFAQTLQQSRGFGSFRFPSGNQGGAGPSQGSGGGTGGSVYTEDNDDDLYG

B1: p47 (natural protein)
chain: MAAERQEALREFVAVTGAEEDRARFFLESAGWDLQIALASFYEDGGDEDIVTISQATPSSVSRGTAPSDNRVTSFRDLIHDQDEDEEEEEGQRFYAGGSERSGQQIVGPPRKKSPNELVDDLFKGAKEHGAVAVERVTKSPGETSKPRPFAGGGYRLGAAPEEESAYVAGEKRQHSSQDVHVVLKLWKSGFSLDNGELRSYQDPSNAQFLESIRRGEVPAELRRLAHGGQVNLDMEDHRDEDFVKPKGAFKAFTGEGQKLGSTAPQVLSTSSPAQQAENEAKASSSILIDESEPTTNIQIRLADGGRLVQKFNHSHRISDIRLFIVDARPAMAATSFILMTTFPNKELADESQTLKEANLLNAVIVQRLT
As for B1, the 50% inhibitory concentration (IC50) is 20.4 ± 2.8 nM.

B2: valosin contain protein p97/p47 interacting protein 1 (VCPIP1), wild type (enzyme)
chain: MSQPPPPPPPLPPPPPPPEAPQTPSSLASAAASGGLLKRRDRRILSGSCPDPKCQARLFFPASGSVSIECTECGQRHEQQQLLGVEEVTDPDVVLHNLLRNALLGVTGAPKKNTELVKVMGLSNYHCKLLSPILARYGMDKQTGRAKLLRDMNQGELFDCALLGDRAFLIEPEHVNTVGYGKDRSGSLLYLHDTLEDIKRANKSQECLIPVHVDGDGHCLVHAVSRALVGRELFWHALRENLKQHFQQHLARYQALFHDFIDAAEWEDIINECDPLFVPPEGVPLGLRNIHIFGLANVLHRPIILLDSLSGMRSSGDYSATFLPGLIPAEKCTGKDGHLNKPICIAWSSSGRNHYIPLVGIKGAALPKLPMNLLPKAWGVPQDLIKKYIKLEEDGGCVIGGDRSLQDKYLLRLVAAMEEVFMDKHGIHPSLVADVHQYFYRRTGVIGVQPEEVTAAAKKAVMDNRLHKCLLCGALSELHVPPEWLAPGGKLYNLAKSTHGQLRTDKNYSFPLNNLVCSYDSVKDVLVPDYGMSNLTACNWCHGTSVRKVRGDGSIVYLDGDRTNSRSTGGKCGCGFKHFWDGKEYDNLPEAFPITLEWGGRVVRETVYWFQYESDSSLNSNVYDVAMKLVTKHFPGEFGSEILVQKVVHTILHQTAKKNPDDYTPVNIDGAHAQRVGDVQGQESESQLPTKIILTGQKTKTLHKEELNMSKTERTIQQNITEQASVMQKRKTEKLKQEQKGQPRTVSPSTIRDGPSSAPATPTKAPYSPTTSKEKKIRITTNDGRQSMVTLKSSTTFFELQESIAREFNIPPYLQCIRYGFPPKELMPPQAGMEKEPVPLQHGDRITIEILKSKAEGGQSAAAHSAHTVKQEDIAVTGKLSSKELQEQAEKEMYSLCLLATLMGEDVWSYAKGLPHMFQQGGVFYSIMKKTMGMADGKHCTFPHLPGKTFVYNASEDRLELCVDAAGHFPIGPDVEDLVKEAVSQVRAEATTRSRESSPSHGLLKLGSGGVVKKKSEQLHNVTAFQGKGHSLGTASGNPHLDPRARETSVVRKHNTGTDFSNSSTKTEPSVFTASSSNSELIRIAPGVVTMRDGRQLDPDLVEAQRKKLQEMVSSIQASMDRHLRDQSTEQSPSDLPQRKTEVVSSSAKSGSLQTGLPESFPLTGGTENLNTETTDGCVADALGAAFATRSKAQRGNSVEELEEMDSQDAEMTNTTEPMDHS
modifications: labeled with BODIPY, DOL 0.23, as the labelled partner in the TR-FRET assays; unlabeled as competitor
Molecule B2 had an IC50 of 74.5 ± 13.9 nM. Against the preceding molecule, the IC50 is about 3.7-fold higher.
